The experiment deals with T1, CD24多肽 (human, UniProt P25063 27-59).
T1 construct: domain: CD24核心区; also called CD24核心区多肽; 抗原肽CD24
T1 peptide (looked up): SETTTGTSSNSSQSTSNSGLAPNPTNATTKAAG
The experiment is described as follows: Competitive ELISA by the Friguet method: 10 pM antibody preincubated overnight with 0-6.25e-10 M antigen, then free antibody captured on coated CD24 peptide; KD from linear regression. On the technique in general: In an ELISA, binding on a coated surface is turned into a signal by an enzyme label.

B1: 单克隆抗体E4 (antibody, V domains shown)
VH: QVKLEESGGGLVQPGGSLKISCAASGPDFSRYWMSWVRQAPGKGLEWIGEINPDYSTINYTPSLRDKFIISRDNAKNTLYLQMSKVRYEDTSLYYCVRQGDYWGQGTSVTVSS
VL: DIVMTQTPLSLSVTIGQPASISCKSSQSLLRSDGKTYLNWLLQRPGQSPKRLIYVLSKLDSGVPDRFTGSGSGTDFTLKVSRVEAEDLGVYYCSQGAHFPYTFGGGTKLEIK
notes: also called E4杂交瘤细胞株抗体
A word on the Kd: it is the equilibrium constant for the complex coming apart. A higher Kd goes with weaker binding. Regarding B1, the Kd was 0.84 nM.

For the origin of these results see patent CN105646713A (UNIV CHINA PHARMA, dated 2016).
